Measurements published in article doi:10.1101/2023.07.05.547778 (bioRxiv, 2023).
Where no end group is shown, it is not given here. The star is where a group is joined. Biotin = O=C1N[C@H]2[C@H](CS[C@H]2CCCCC(=O)*)N1

Key:
[1] = molecular target: T1, APDTRPAPG (synthetic MUC1 epitope peptide without N-terminal biotin or linker); assay: crystal structure
T1 chain: APDTRPAPG

[2] = molecular target: T2, biotin-GGS-APDTRPAPG (N-terminally biotinylated synthetic MUC1 VNTR peptide); assay: SPR
T2 chain: Biotin-GGSAPDTRPAPG

B1: recombinant 139H2 Fab fragment (Fab, V domains shown)
VH: QVQLQQSGAELVKPGASVKLSCKASGYTFTNYYMYWVLQRPGQGLEWIGEINPSNGGTTFNEKFKNKATLTVDKSSSTAYMQLNSLTSEDSAVYYCTRSRYGNYVNYGMDYWGQGTSVTVSS
VL: DIVMSQSPSSLAVSVGEKVTMSCKSSQSLLYSNTQKNYLAWYQQKPGQSPKLLIYWASTRESGVPDRFTGSGSGTDFTLTISSVKAENLAVYYCQQYYRYPPTFGGGTKLELK
binding result [1]: binds
Kd [2]: 4.5 µM
